Patent US20240010750A1 (Bayer, published 2024)

Assays:
[1] = target: T1, human alpha2-Antiplasmin (human, UniProt P08697 40-491); assay: ELISA, coated antigen, 2nd exp.
T1 construct: Bought (antibodies online, ABIN2544306); also called human A2AP; a2AP
T1 sequence: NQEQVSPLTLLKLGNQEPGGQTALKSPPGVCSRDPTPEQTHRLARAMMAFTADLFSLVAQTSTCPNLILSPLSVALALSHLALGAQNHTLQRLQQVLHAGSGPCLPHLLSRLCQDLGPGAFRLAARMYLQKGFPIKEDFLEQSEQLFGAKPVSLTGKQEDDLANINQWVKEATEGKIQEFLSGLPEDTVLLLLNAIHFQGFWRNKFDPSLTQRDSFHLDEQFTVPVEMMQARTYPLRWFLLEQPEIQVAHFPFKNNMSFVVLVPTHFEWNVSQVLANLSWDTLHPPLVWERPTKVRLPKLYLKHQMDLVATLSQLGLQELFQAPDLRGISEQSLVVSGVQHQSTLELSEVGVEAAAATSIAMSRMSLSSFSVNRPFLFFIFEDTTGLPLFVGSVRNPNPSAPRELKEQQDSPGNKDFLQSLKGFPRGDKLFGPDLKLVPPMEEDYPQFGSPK
Procedure: (§1) A standard ELISA format was used for analyzing the binding affinity of Fabs of this invention to human and rabbit alpha-2-Antiplasmin, respectively. Antigens were coated to black 384 well Maxisorp microtiter plates (Nunc; catalogue number 460518), diluted to a concentration of 1 μg/ml in 1× Coating Buffer (Candor Bioscience; catalogue number 121125). Plates were incubated overnight at 4° C. After overnight incubation, plates were washed 2× with 50 μl/well using PBS+0.05% Tween 20. Following this, 50 μl/well of blocking buffer (Smart Block; Candor Bioscience; catalogue number 113500) was added and the plates were incubated for 1 hour at room temperature. Afterwards, plates were washed for 3× using […] PBS+0.05% Tween 20 buffer. Fabs of this invention were added at different concentrations in a final volume of 30 μl/well. Plates were incubated for 1 hour at room temperature. Following this incubation step, plates were washed for 3× using 50 μl/well of a PBS+0.05% Tween 20 buffer. For the detection of bound Fabs and full-length antibodies, the anti-Human Lambda Light Chains (Bound and Free)—Peroxidase antibody (Sigma; catalogue number A5175) was diluted by the factor of 1:10.000 in 10% Blocking Buffer. […]
(§2) For measurement, the Infinite f500 reader (Tecan) was used. Measurement mode: Fluorescence; Top reading; Ex 535 nm; Em 590 nm. […]

[2] = target: T2, rabbit alpha2-Antiplasmin (rabbit (Oryctolagus cuniculus)); assay: ELISA, coated antigen, 2nd exp.
T2 construct: Made in house in HEK293 cells, purified by Ni-IMAC and SEC (a His tag is implied but not described); also called rabbit A2AP; Oryctolagus cuniculus A2AP
T2 chain: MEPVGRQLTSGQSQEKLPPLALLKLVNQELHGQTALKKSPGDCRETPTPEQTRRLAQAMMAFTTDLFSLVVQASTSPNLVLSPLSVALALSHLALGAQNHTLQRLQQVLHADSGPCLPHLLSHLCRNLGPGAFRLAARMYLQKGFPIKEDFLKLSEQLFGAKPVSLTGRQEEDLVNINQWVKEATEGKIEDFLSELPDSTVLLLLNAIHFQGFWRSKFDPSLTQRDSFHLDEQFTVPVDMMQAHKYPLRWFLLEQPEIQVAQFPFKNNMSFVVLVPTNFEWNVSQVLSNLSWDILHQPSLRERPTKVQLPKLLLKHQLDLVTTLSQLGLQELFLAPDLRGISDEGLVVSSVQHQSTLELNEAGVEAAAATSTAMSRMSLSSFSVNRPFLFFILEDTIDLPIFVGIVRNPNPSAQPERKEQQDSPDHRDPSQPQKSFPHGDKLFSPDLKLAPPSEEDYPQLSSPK
Procedure: as §1, §2

[3] = target: T1, human alpha2-Antiplasmin; assay: ELISA, coated antigen, 3rd exp.
Procedure: as §1
(§3) For measurement, the Infinite f500 reader (Tecan) was used. Measurement mode: Fluorescence; Top reading; Ex 535 nm; Em 590 nm.

[4] = target: T2, rabbit alpha2-Antiplasmin; assay: ELISA, coated antigen, 3rd exp.
Procedure: as §1, §3

- EC50 [1]: 100 nM
- EC50 [2]: 6.07 nM
- EC50 [3]: 130 nM
- EC50 [4]: 6.2 nM
B1: TPP-12387 hIgG1 (antibody, V domains shown)
VH: EVQLLESGGGLVQPGGSLRLSCAASGFTFDDYAMSWVRQAPGKGLEWVSAIGTGGGTYYADSVKGRFTISRDNSKNTLYLQMNSLRAEDTAVYYCAREYYDSSGYYHLDYWGQGTLVTVSS
VL: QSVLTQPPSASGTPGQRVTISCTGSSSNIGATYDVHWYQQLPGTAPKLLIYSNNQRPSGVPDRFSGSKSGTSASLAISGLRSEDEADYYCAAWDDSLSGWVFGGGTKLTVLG
notes: Fully human IgG1 lambda from the BioInvent n-CoDeR Fab lambda library; parental lead antibody
